# In the nanobody polyreactivity screen of Harvey et al. (2022):
# Assay: yeast display, Sf9 membrane polyspecificity reagent, FACS + sequencing; frameworks hold sequencing errors
# How it was run: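 Using colony PCR, genes from sorted yeast display clones were amplified, then sequenced on MiSeq at 2 × 250 and filtered by CDR length. The clones had been stained with 10% biotinylated, detergent-solubilized Sf9 membrane reagent for 1 hour at 4 °C and sorted by FACS into low and high (top ~1%) gates on anti-HA and streptavidin fluorescence. Polyreactivity labels come from the gate of origin.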
row,Sequence,polyreactivity (PSR sort gate)
1,QVQLVESGGGLVQAGGSLRLSCAASGRTFWYYTMGWYREAPGKERELVAAINWSGGSTYYADSVKGRFTISRDNAKNTVYLQMNSLKPEDTAVYYCAARRNGYFSAARDYGGQGTQVTVSS,high polyreactivity
2,QVQLVESGGGLVQAGGSLRLSCAASGRTFGSNLMGWYRQAPGKERELVADISVSGGSTNYADSVKGRFTISRDNAKNTVYVQLNSLNPEDTAVYYCAASQLSDWPPYYYDFDYWGQGTQVTVSS,low polyreactivity
3,QVQLVESGGGLVQEGGSLRLSCAASGRNFGRYAMVRYRQAPGKERELVAAISSSGVATYYADSVKGRFTISRDNAKNTVYLQMNSLKPEDTEVYYCNSLYRVFYGFYYWGQGTQVTVSS,high polyreactivity
4,QVQLVESGGGLVQAGGSLRLSCAPSGRTFYIYAMGWSRQAPGKERELVAAITRSGGSTYYADSVKGRFTISRDNAKNTVYLQMNSLKPEDTAVYYCNARRWITSDYWGQGTQVTVSS,high polyreactivity
5,QVQLVDSGGGLVQAGGSLRLSCAASGSTFRVNAMGWYRQAPGKERELGAAISGSGSGTYYADSVKGRFTISRDNAKNTVYLLMNSLKPEDTAVYYCAKVPKSRGYVGGMDYWGQGTQVTVSS,low polyreactivity
6,QVQLVESGGGLVQAGGSLRLSCAASGSIFYQNMGWYRQAPRKERELVATINRGSSTHYADSVKGRFTISRDNAKNTVYLQMNSLKPEDTAVYYCAKRSSRYRLYYWGQGTQVTVSS,high polyreactivity
7,QVQLVESGGGLVQAGGSLRLSCAASGLTSWYNAMGWYRQAPGKEREFVAAISFSGGRTFYADSVKGRFTISRDNAKKTVYLQMNSLKPEDTAGYYCNADVYGFDYWGQGTQVTVSS,high polyreactivity
8,QVQLVESGGGLVQAGGSLRLSCAASGRILYPYAMGWYRQAPGKERELVAAISSRSANTYYADSVKGRFTISRDNAKNTVYLQMNSLKPEDTAVYYCAARSLGLGFGHWGQGTQVTVSS,high polyreactivity
9,QVQLVESGGGLVQAGGSLRLSCAASGRTFKYYAMGWYRQAPGKERELVAAISSRGGSTYYADSVKGRFTISRDNAKNTVYLQMNSLKPEDTAVYYCAKGTYLSTSTVANDYWGQGTQVTVSS,high polyreactivity
10,QVQHVESGGGLVQAGGSLRLSCAASGSTFSHYAMGWYRQAPGKERELVASINSAGSTNYADSVKGRFTISRDNAKNTVYLQMNSLKPEDTAVYYCNTEVQVYSYNYWGQGTQVTVSS,low polyreactivity
11,QVQLVESGGGLVQAGGSLRLSCAASGSTFTGNAMGWYRQAPGKERELVASINGSSGSTYYADSVKGRFTISRDNAKNTVYFQMNSLKPEDTAVYYCAKDSFLHFPRVGWVGLEYWGQGTQVTVSS,low polyreactivity
12,QVQLVESGGGLVQAGGSLRLSCAASGFIFDRYAMGWYRQAPGKERELVAAISSGGSTYYADSVKGRFTISRDNAKNTVYLQMNSLKPEDTAVYYCAAESWLKFIYEYDYWGQGTQVTVSS,low polyreactivity
13,QVQLVESGGGLVQAGGSLRLSCAASGFILSWYAMGWYRQAPGKERELVAGISRRGGSTYYADSVTGRFTISRDNAKNTVYLQMNSLKPEDTAVYYCNALYDDWSVSTGDYWGQGTQVTVSS,high polyreactivity
14,QVQLVESGGGLVQAGGSLRLSCAASGSIFQEYAMGWYRQAPGKERELVAAIDDSDGSTYADSVKGRFTISRDNAKTTVYLQMNSLKPDDTAVYYCNADIHATYDYWGQGTQVTVSS,low polyreactivity
15,QVQLVESGGGVVQAGGSLRLSCAASGFTFGVYAMRGYRQAPGKERELVAAISSRGGSTYYADSVKGRFTISRDNPTNPVYLQMNSLKPEDTAVYYCAKRLGNTVGKDDYWGQGTQVTVSS,low polyreactivity
16,QDQLVESGGGLVQAGGSLRLSCAASGGIFLGNAMGWYRQAPGKERELVAAISFSGGSTYYADSVKGRFTISRDNAKNTVYLQMNSLKPEDTAVYYCAAAWNRGKYNYYYWGQGTQVTVSS,high polyreactivity
17,QVQLVESGGGLVQAGGSLRLSCAASGSTFYDYVMGWYRQAPGKERELVAAISRTGASTYYADSVKGRFTISRDNAKNTVYLQMNSLKPEDTAVYYCAADSDTVRYYYWGQGTQVTVSS,high polyreactivity
18,QDQLVESGGGLVQAGGSLRLSCAASGRTFRRNAMGWYRQAPGKERELVAAITWRGTSTYYADSVKGRFTISRDNAKNTVYLQMNSLKPEDTAVYYCAAVVKDSRPYQAYVGSIHRDYWGQGTQVTVSS,high polyreactivity
19,QVQLVESGGGLVQAGGSLRLSCAASGRIFYPYAMAWYRQAPGKERELVAAISGSGARKYYADSVKGRFTISRDNAKNTVYLQMNSLKPEDTAVYYCARYQSNSDVYWGQGTQVTVSS,high polyreactivity
20,QVQLVESGGGLVQAGGSLRLSCAASGRIFTRNTMGWYRQAPGKERELVAAISSGASTYYADSVKGRFTISRDTAKNTVYLQMNSLKPEDTAVYYCATRGYARYWGLGTQVTVSS,low polyreactivity
21,QVQLVESGGGLVQAGGSLRLSCAASGSIFYGNAMGWYRQAPGKERELVAAISKRGGSTYYADSVKGRFTISRDKAKNSVYLQMNSLKPEDTAVYYCAKATAGHTEYYYWGQGTQVTVSS,high polyreactivity

row,Sequence,polyreactivity (PSR sort gate)
1,QVQLVESGGGLVQAGGSLRLSCAASGSILSGYAMGWYRQAPGKERELVAAITSGGDTNYADSVKGRFTISRDNAKNTVYLQMNSLKPEDTAVYYCNRGGDFRIAYYDPMDYWGQGTQVTVSS,low polyreactivity
2,QVQLVESGGGLVQAGGSLRLSCAASGRILAINVMGWYRQAPGKERELVAAITLSSGSTYYADSVKGRFTMSRDNAKNTVYFQMNSLKPEDTAVYYCAADVYSGLSEGYYWGQGTQVTVSS,low polyreactivity
3,QVQLVESGGGLVQAGGSLRLSCAASGSTFPLYTMGWYRQAPGKEREFVAAISRSGGSTYYADSVKGRFTISRDNAKNTVFLQINSLKPEDTAVYYCDTRSYKSRTYDYWGQGTQVSVSS,high polyreactivity
4,QVQLVESGGGLVQAGGSLRLSCAASGSTFRLYAMGWYRQAPGKERELVAAISYSGGSTYYADSVKGRFTISRDNAKNTVYLQMNSLKPEDTAVYYCNAVRRHGGYYDYGYWGQGTQVTVSS,high polyreactivity
5,QVQLVESGGGLVQAGGSLRLSCAASGSTFYYNAMGWYRQAPGKEREFVASISWRGGRTYYADSVKGRFTISRDNAKNTVYLQMNSLKPEDTAVYYCAKGYLALGQPDDYWGQGTQVTVSS,high polyreactivity
6,QVQLVESGGGLVQAGGSLRLSCAASGFIFDWYTMGWYRQAPGKERELVAAITIGGSTDYADSVKGRFTISRDNAKNTVYLQMNSLKPEDTAVYYCNALWYLSGTWYDYWGQGTQVTVSS,low polyreactivity
7,QVQLVESGGGIVQAGGSLRLSCAASGIIFGYYAMGWYRQAPGKEREMVAAINQDGSSTYYADSVKGRFTISRDYAKNTVYLQMNSLKPEDTAVFYCNARGVPRQDARMGYWGQGTQVTVSS,low polyreactivity
8,QVQLVESGGGLVQAGGSLRLSCAASGLTFGGYVMGWYRPAPGKERELVAAISWSGTRTYYADSVKGRFTISRDNAKNTVYLQMNSLKPEDTAVYYCAARVKSYNRGYYWGQGTQVTVSS,high polyreactivity
9,QVHLVESGGGLVQAGGSLRLSCAASGRTFGYYAMGWYRPAPWKEWELVAAITQSGGSTYYADSVKGRFTISRDTAKITVYLQMHSLKPEDTAVYYCAADDKYFYPGNGYWGQGTQVTVSS,high polyreactivity
10,QVQLVESGGGLVQAGGSLRLSCAASGRTFYGYVMGWYRQAPGKERELVAAISRSVGSTYYADSVKGRFTISRDNAKNTVYLQMNSLKPEDTAVYYCATSVYGGVDYWGQGTQVTVSS,high polyreactivity
11,QVQLVESGGGLVQAGGSLRLSCAASGSTFGINAMGWYRQSPGKERELVAAISSRGGRTYYADSVKGRFTISRDNAKNTVYLQMNSLKPEDTAVYYCNAVYGRVKGRGVGFKPQYDSWGQGTQVTVSS,high polyreactivity
12,QVQLVESGGGLVQAGGSLRLSCAASGFTFYSYAMGWYRQAPGKEWELVAAISRRGGSTYYADSVKGRFTISRDNAKNTVYLQMNCLKPEDTAVYYCAAEDSNSRYLYGYDYWGQGTQVTVSS,high polyreactivity
13,QVQLVESGGGLVQAGGSLRLSCAASGRIFQNYALGWYRQAPGKERELVATISSGVSTYYADSVKGRFTISRDNAKNTVYLQMNSLKPEDTAVYYCAAYVPWFEMDYWGQGTQVTVSS,low polyreactivity
14,QVQLVESGGGLVQAGGSLRLSCAASGRIIYVYAMGWYRQAPGKERELVAAISDSGGSTYYADSVKGRFTISRDNAKNTVYLQMNSLKPEDTAVYYCAAEGYYSDYWGQGTQVTVSS,high polyreactivity
15,QVQLVESGGGLVQAGGSLRLSCAASGFTFSDNAMVWYRQAPGKERELVAAISEGSGITYDADSVKGRFTISRDNAKNTVNLQMNSLKPEDNAVYYCAADWLSKYDYWGQGTQVTVSS,low polyreactivity
16,QVQLVESGGGLVQAGGSLRLSCAASGNIFGGYAMGWYRQAPGKERELVATIRDRGGSTYYADSVKGRFTISRDNAKNSVYLQMNSLKPEDTAVYYCNPRFRTYRLTMEYWGQGTQVTVSS,high polyreactivity
17,QDQLVESGGGLVQAGGSLRLSCAASGGNFYGNAMGWYRQAPGKERELVATISRRGGSTYYADSVKGRFTISRDNAKNSVYLQMNSLKPEDTAVYYCAADARSSYYTKRFDYWGQGTQVTVSS,high polyreactivity
18,QVQRVESGGALVQAGGSLRLSCAASGSIIGINAMGWYRPAPGKERELVAAINGGGSTYYADSVKGRFTISRDNAKNTVYLQMHSLKPEDTAVYYCAAEWGTSWYDYRGQGTQVTVSS,low polyreactivity
19,QVQLVESGGGLVQAGGSLRLSCAASGFTFTYYAMGSYRQAPGKERELVAAITSRGGTTYYADSVKGRFTISRDNAKNTVYLQMNSLKPEDTAVYYCNARHSYWTGRRVTDDYDYWGQGTQVTVSS,high polyreactivity
20,QVQLVESGGGLVQAGGSLRLSCAASGLTFHAYAMGWYRQAPGKEREFVAAITRSGSSTSYAYSVKGRFTISRDNAKNTVYLQMNSLKPEDTAVYYCAAQGSRKYRNDYWGQGTQVTVSS,high polyreactivity
